# Results taken from patent US20160200789A1, “IL4 CONJUGATED TO ANTIBODIES AGAINST EXTRACELLULAR MATRIX COMPONENTS” (PHILOGEN S.P.A., priority 2013, published 2016).
# Legend:
# F9 teratocarcinoma [1] = experiment: Therapy studies in F9 teratocarcinoma-bearing mice; assay type: in vivo, mouse
# Protocol: In a dose finding study, F9 tumour-bearing mice were randomly grouped (n=5) and injected intravenously (i.v.) into the lateral tail vein when tumours were clearly palpable. […] The therapeutic antibodies were all dissolved in phosphate buffered saline (PBS) and this buffer was also used in the negative control treatment groups. The mice were monitored daily and tumour volume was measured with a calliper (volume=length×width^2×0.5).
# A20 lymphoma = experiment: Therapy studies in A20 tumour-bearing mice; conditions: 90 μg i.v. every second day
# Source text: (§1) Data represent mean tumour volumes (±SEM), n=5 mice per group. […] Data represent mean tumour volumes (±SEM), n=5 mice per group.
# Differences in tumor volume, % ID/g and Tumor-to-blood ratio between therapeutic groups were compared using Graphpad Prism's repeated measures (mixed model) ANOVA analysis.
# For this, as well as the other experiments described below, F9 teratocarcinoma (CRL-1720; ATCC, Molsheim Cedex, France), CT26 colon carcinoma (CRL-2638; ATCC, Molsheim Cedex, France) and A20 lymphoma (TIB-208; ATCC, Molsheim Cedex, France) were grown according to the supplier's protocol and tumour cells implanted subcutaneously in the flank using 25×10^6 cells (F9), 2×10^6 cells (CT26) or 8×10^6 cells (A20). F9 teratocarcinoma cells were implanted into 129/SvEv mice (Charles River, Sulzfeld, Germany), CT26 colon carcinoma cells were implanted into Balb/c mice (Elevage Janvier, Le Genest-St-Isle, France) and A20 lymphoma cells were implanted into Balb/c mice (Elevage Janvier, Le Genest-St-Isle, France). Mice were sacrificed when tumour volumes reached a maximum of 2000 mm^3.
# [2] = system: tumour neovascular structures in murine F9, CT26 and A20 tumours; experiment: Immunofluorescence on untreated tumour sections; set-up: species or system mouse; conditions: biotinylated protein on F9, CT26 and A20 tumour sections
# Source text: For detection streptavidin-Alexa Fluor 488 and anti-rat-Alexa Fluor 594 (Invitrogen) were used. Slides were mounted with fluorescent mounting medium (Dako) and analyzed with an Axioskop2 mot plus microscope (Zeiss).
# [3] = Solubility of the product (limit of dose escalation); assay type: physicochemical; conditions: doses above 90 μg could not be tested
# CT26 colon carcinoma [4] = experiment: Therapy studies in CT26 tumour-bearing mice; conditions: 90 μg i.v. every 48 h
# Source text: as §1
# In the description of the below experiments, data are expressed as the mean (±SEM). Differences in tumor volume, % ID/g and Tumor-to-blood ratio between therapeutic groups were compared using Graphpad Prism's repeated measures (mixed model) ANOVA analysis.
# Mice were sacrificed when tumour volumes reached a maximum of 2000 mm^3.
# (§2) In order to study a second immunocompetent mouse model of cancer, the inventors focused on Balb/c mice (obtained from Elevage Janvier [France]) bearing subcutaneous CT26 tumours of colorectal origin.
# F9 teratocarcinoma [5] = experiment: Quantitative biodistribution in F9 tumour-bearing mice; assay type: in vivo, mouse
# Protocol: The in vivo targeting performance was assessed by quantitative biodistribution where 15 μg of radioiodinated fusion protein was injected i.v. into the lateral tail vein of immunocompetent 11-12 week old female Sv129Ev mice (obtained from Charles River [Germany]), bearing sub-cutaneously grafted F9 tumours (for labelling protocol, see (Pasche et al. 2011)). Mice were sacrificed 24 hours after injection, organs were excised, weighed and radioactivity was measured using a Packard Cobra γ counter.
# CT26 colon carcinoma [6] = experiment: Ex vivo immunofluorescence of CT26 tumours; assay type: in vivo, mouse
# Source text: as §2
# [7] = system: collagen induced arthritis in DBA/1J mice; experiment: Aggressive collagen induced arthritis model, F8-IL4 dose comparison (Example 3); assay type: in vivo
# Protocol: Animals showing signs of joint inflammation with a total score of 1 to 3 were included in the therapy experiments. When the joint inflammation was too high at day one (more than one paw, score>3) mice were not included in the therapy experiments. Experiments were performed under a project license granted by the Veterinaeramt des Kantons Zuerich, Switzerland (208/2010).
# The dose for TNFR-Fc was determined by calculations from the human ENBREL dose and the approximate local TNF concentration compared with the bioactivity of the fusion protein.
# F9 teratocarcinoma [8] = experiment: Ex vivo immunofluorescence of treated F9 tumours; assay type: in vivo, mouse; conditions: ex vivo immunofluorescence after i.v. administration
# Protocol: For ex vivo detection of the localization of the IL4-based immunocytokines and of tumour infiltrating cells after therapy, mice were injected three times with the appropriate proteins as for therapy experiments and sacrificed two days after the last injection. Tumours were excised, embedded in cryoembedding medium (Thermo Scientific) and cryostat sections (10 μm) were stained using the antibodies: Anti-IL4 antibody (eBioscience), CD45 (leukocytes, BD Biosciences), CD4 (CD4+Tcells, BioXCell), CD8 (CD8+Tcells, BioXCell), F4/80 (macrophages, Abcam), Asialo GM1 (NK cells, Wako Pure Chemical Industries), CD45R (B cells, eBioscience), Foxp3 (eBioscience), CD31 (Santa Cruz); and detected with AlexaFluor488 respectively AlexaFluor594 coupled secondary antibodies (Invitrogen). Slides were mounted with fluorescent mounting medium (Dako) and analyzed with an Axioskop2 mot plus microscope (Zeiss).
# [9] = system: CHS-induced ear inflammation in K14-VEGF-A mice; experiment: Contact hypersensitivity-induced ear inflammation in K14-VEGF-A mice; assay type: in vivo, mouse
# Source text: A delayed-type hypersensitivity reaction was induced in the ear skin of female FVB mice that overexpress VEGF-A in the epidermis under control of the human keratin 14 promoter as previously described (Detmar et al., 1998; Kunstfeld et al., 2004; Xia et al., 2003). Heterozygous VEGF-A transgenic mice with no pre-existing inflammatory lesions were sensitized by topical application of a 2% oxazolone (4-ethoxymethylene-2-phenyl-2-oxazoline-5-one; Sigma) solution in acetone/olive oil (4:1 vol/vol) to the shaved abdomen (50 μl) and each paw (5 μl). Five days after sensitization, the ears were challenged by topical application of 20 μl of a 1% oxazolone solution. Therapy was started on day 7 and repeated at day 9, 11 and 13. […] Ear thickness was measured every other day and at day 15, mice were sacrificed and ear draining lymph nodes were weighted. The timeline for this experiment is illustrated in FIG. 13A. Each treatment event is indicated by an arrow.
# [10] = system: endometriotic lesions in Balb/c mice; experiment: Endometriosis model in Balb/c mice; assay type: in vivo, mouse
# Protocol: Endometriosis was induced in sixty eight-week old female Balb/c mice according to the protocol described by Somigliana et al. (1999).
# One day after the implantation of endometrial tissue, pairs of mice (who received tissue from the same donor) were treated either with intravenous (i.v.) injections of F8-murine IL4 (200 μg/mouse; SEQ ID NO: 21) or PBS (group 1); or with i.v. injections of KSF-murine IL4 (200 μg/mouse; SEQ ID NO: 44) or PBS (group 2). The same treatment was repeated at days 4 and 7. Mice were sacrificed at day 15.
# CTLL2 cells = experiment: CTLL2 cell proliferation bioactivity assay; assay type: cell-based; conditions: 24 h
# Protocol: The biological activity of murine IL4 was determined by its ability to stimulate the proliferation of CTLL2 cells. […] After incubation at 37° C. for 24 h, cell proliferation was determined with Cell Titer Aqueous One Solution (Promega).
# [11] = 15 μg radioiodinated protein i.v., 24 hours
# [12] = 200 μg/mouse i.v. days 1, 4, 7, day 15, vs PBS
molecule,measurement,setting,value
"F8-IL4: antibody F8 (anti-EDA of fibronectin) in diabody format fused at the C-terminus to murine interleukin 4 via 15 amino acid linker (protein, Synthetic sequence Amino acid sequence of F8 -(murine) IL4 of PCT/EP2014/053998, antibody F8 (anti-EDA of fibronectin) in diabody format fused at the C-terminus to murine interleukin 4 via 15 amino acid linker) EVQLLESGGGLVQPGGSLRLSCAASGFTFSLFTMSWVRQAPGKGLEWVSAISGSGGSTYYADSVKGRFTISRDNSKNTLYLQMNSLRAEDTAVYYCAKSTHLYLFDYWGQGTLVTVSSGGSGGEIVLTQSPGTLSLSPGERATLSCRASQSVSMPFLAWYQQKPGQAPRLLIYGASSRATGIPDRFSGSGSGTDFTLTISRLEPEDFAVYYCQQMRGRPPTFGQGTKVEIKSSSSGSSSSGSSSSGHIHGCDKNHLREIIGILNEVTGEGTPCTEMDVPNVLTATKNTTESELVCRASKVLRIFYLKHGKTPCLKKNSSVLMELQRLFRAFRCLDSSISCTMNESKSTSLKDFLESLKSIMQMDYS",tumour retardation in dose finding study,"F9 teratocarcinoma [1]; 90 μg compared with 45 μg, i.v. every second day",best tumour retardation results
same,therapeutic effect compared with KSF-IL4,F9 teratocarcinoma [1]; 90 μg i.v. every second day,substantially more potent
same,cure of F9 tumours by treatment alone,F9 teratocarcinoma [1]; monotherapy,not cured
same,single-agent therapeutic activity,"F9 teratocarcinoma [1]; mouse, in vivo",potent single-agent therapeutic activity
same,tumour growth retardation,A20 lymphoma,superior tumour growth retardation compared to KSF-IL4
same,recognition of tumour neovascular structures,[2],able to recognize tumour neovascular structures
same,solubility,[3],insufficient solubility
same,therapeutic performance,CT26 colon carcinoma [4],superior therapeutic performance compared to KSF-IL4
same,accumulation at the tumour site (% ID/g),F9 teratocarcinoma [5]; [11],preferential accumulation
same,tumour-to-blood ratio,F9 teratocarcinoma [5]; [11],12
same,clearance from the blood stream,F9 teratocarcinoma [5]; 24 hours after i.v. injection,fast clearance from the blood stream
same,accumulation at the tumour site,CT26 colon carcinoma [6],preferentially accumulated at the tumour site
same,reduction in paw swelling compared with murine version of ENBREL,[7]; 100 μg vs TNFR-Fc 30 μg,at least equivalent
same,tolerability,[7]; 100 μg/injection,well tolerated
same,weight change,[7]; 100 μg/injection,lost less weight than mice receiving only the buffer vehicle (PBS)
same,disease-modulating effect (arthritic score),"[7]; 100 μg/injection i.v., days 1, 4 and 7",at least as potent as the murine version of Enbrel (TNFR-Fc)
same,paw swelling,"[7]; 100 μg, vs buffer vehicle or low dose",less severe paw swelling than mice receiving only the buffer vehicle or low amounts of F8-IL4
same,accumulation on CD31-positive tumour neo-vascular structures,F9 teratocarcinoma [8],preferential accumulation
same,ear thickness,"[9]; 100 μg i.v. days 7, 9, 11, 13, vs PBS or KSF-IL4",significantly reduced ear thickness
same,ear draining lymph nodes (weight),[9]; day 15,smaller
same,decrease in ear thickness from treatment initiation (day 7),"[9]; mouse, in vivo","significantly more than treatment with either FSF-IL4, F8-SIP or PBS"
same,mice completely cured of the disease,[10]; 200 μg/mouse i.v.,three mice out of ten
same,number of the endometriotic lesions,[10]; [12],statistically significant reduction
same,volume of the endometriotic lesions,[10]; [12],statistically significant reduction
same,EC50,"CTLL2 cells; CTLL2 cells, 20000 cells/well",0.023 nM
same,biological cytokine activity,CTLL2 cells; CTLL2 proliferation,comparable to that of recombinant murine IL4
